Measured values: patent US20020155995A1 (published 2002)

Target: T1, human CD163, ligand-affinity purified from Triton X-100 solubilised human spleen, placenta and liver membranes (human, UniProt Q86VB7 42-1156)
T1 construct: mature; Natural receptor purified from tissue membranes on Hp-Hb Sepharose; immobilised on BIAcore CM5 chips or in microtiter wells; also called HbSR; Hp-Hb receptor
Test: SPR, CD163 immobilised on CM5 chip
Method: Purified CD163 was immobilised at the BIAcore sensor CM5 chip (BIAcore AB) at a concentration of up to 50 μg/ml in 10 mM sodium acetate, pH 4.0, and the remaining binding sites were blocked with 1 M ethanolamine pH 8.5. The surface plasmon resonance signal generated from immobilised CD163 corresponded to 55-66 fmol receptor/mm². The sample and flow buffer was 10 mM Hepes, 150 mM NaCl, 0.5 mM CaCl₂, pH 7.4. The sensor chips were regenerated with 1.6 M glycine-HCl, pH 3.

T1 sequence (Q86VB7 42-1156): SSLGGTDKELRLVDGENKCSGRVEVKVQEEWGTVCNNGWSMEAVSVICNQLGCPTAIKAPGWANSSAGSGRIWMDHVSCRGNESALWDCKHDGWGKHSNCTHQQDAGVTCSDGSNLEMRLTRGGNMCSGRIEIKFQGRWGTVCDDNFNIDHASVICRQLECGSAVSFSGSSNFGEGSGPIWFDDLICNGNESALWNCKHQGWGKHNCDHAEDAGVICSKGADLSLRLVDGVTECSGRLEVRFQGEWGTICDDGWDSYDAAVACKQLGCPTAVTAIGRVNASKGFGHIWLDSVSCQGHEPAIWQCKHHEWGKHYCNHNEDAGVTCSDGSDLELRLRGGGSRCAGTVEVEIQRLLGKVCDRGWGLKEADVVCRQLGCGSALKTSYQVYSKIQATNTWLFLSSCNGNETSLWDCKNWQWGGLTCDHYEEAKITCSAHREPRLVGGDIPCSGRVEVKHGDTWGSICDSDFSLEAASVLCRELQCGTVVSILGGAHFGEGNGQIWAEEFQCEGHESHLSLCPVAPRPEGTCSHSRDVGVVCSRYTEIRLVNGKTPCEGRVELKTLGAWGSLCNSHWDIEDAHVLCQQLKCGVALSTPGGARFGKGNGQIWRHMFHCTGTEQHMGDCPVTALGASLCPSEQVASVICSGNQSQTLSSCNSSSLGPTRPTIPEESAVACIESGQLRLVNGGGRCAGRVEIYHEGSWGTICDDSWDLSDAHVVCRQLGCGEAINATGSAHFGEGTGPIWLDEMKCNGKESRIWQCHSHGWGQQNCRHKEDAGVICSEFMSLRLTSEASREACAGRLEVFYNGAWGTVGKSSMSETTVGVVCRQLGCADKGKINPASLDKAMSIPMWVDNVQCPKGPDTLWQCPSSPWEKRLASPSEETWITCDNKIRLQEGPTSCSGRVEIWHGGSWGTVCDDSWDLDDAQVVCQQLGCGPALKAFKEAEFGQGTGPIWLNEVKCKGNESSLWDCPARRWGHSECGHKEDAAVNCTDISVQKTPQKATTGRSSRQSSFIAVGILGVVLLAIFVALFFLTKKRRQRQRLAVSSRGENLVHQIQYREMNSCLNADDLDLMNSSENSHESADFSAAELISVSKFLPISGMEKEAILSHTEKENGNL

B1: human haptoglobin Hp(2-2), non-complexed (other, UniProt P00738 19-406, looked up)
chain: VDSGNDVTDIADDGCPKPPEIAHGYVEHSVRYQCKNYYKLRTEGDGVYTLNDKKQWINKAVGDKLPECEADDGCPKPPEIAHGYVEHSVRYQCKNYYKLRTEGDGVYTLNNEKQWINKAVGDKLPECEAVCGKPKNPANPVQRILGGHLDAKGSFPWQAKMVSHHNLTTGATLINEQWLLTTAKNLFLNHSENATAKDIAPTLTLYVGKKQLVEIEKVVLHPNYSQVDIGLIKLKQKVSVNERVMPICLPSKDYAEVGRVGYVSGWGRNANFKFTDHLKYVMLPVADQDQCIRHYEGSTVPEKKTPKSPVGVQPILNEHTFCAGMSKYQEDTCYGDAGSAFAVHDLEEDTWYATGILSFDKSCAVAEYGVYVKVTSIQDWVQKTIAEN
notes: mature; From Sigma; mixture of multimers; also called Hp(2-2) multimers
B1: no binding (tested: 50 µg/ml Hp(2-2)).
